Experiment [1] concerns the target T1, human CD3 on cells (Jurkat cells, human T cells) (human, UniProt P07766 23-207).
T1 construct: whole, on cells
Kind of experiment: Jurkat cell binding.

In experiment [2] the target is T1, human CD3 on cells (Jurkat cells, human …). In words: Jurkat cell binding. The source holds these as a separate data set.

Where “and” joins values, the source holds several entries; their conditions need not be identical. Equal values may be shown once. Read-outs that look alike come from different tables or passages of the source.

Four molecules from US20250326860A1 (ADAGENE PTE, published 2025) can be followed below.

T1 sequence (P07766 23-207): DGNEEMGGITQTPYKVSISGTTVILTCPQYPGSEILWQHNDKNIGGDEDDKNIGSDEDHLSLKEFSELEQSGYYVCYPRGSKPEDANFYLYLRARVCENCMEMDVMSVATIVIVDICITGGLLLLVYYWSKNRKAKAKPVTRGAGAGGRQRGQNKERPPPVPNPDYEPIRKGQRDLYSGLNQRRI

B1: TY25023 (bispecific antibody, human IgG1, kappa, N297A)
light: not shown
heavy: not shown
chain: EAVVTQEPSLTVSPGGTVTLTCGSSTGAVTTSNYPNWVQQKPGQAPRGLIGGTNKRAPGTPARFSGSLLGGKAALTLSGAQPEDEAEYYCALWYSDLWVFGGGTKLTVLGGGGSGGGGSGGGGSGGGGSEVQLVESGGGLVQPGGSLRLSCAASGFTFSTYAINWVRQAPGKGLEWVSRIRSKYNNYATYYAESVKDRFTISRDDSKNTLYLQINSLRAEDTAVYYCVRHGNFGTSYVSWFAYWGQGTLVTVSSEPKSSDKTHTCPPCPAPELLGGPSVFLFPPKPKDTLMISRTPEVTCVVVDVSHEDPEVKFNWYVDGVEVHNAKTKPREEQYASTYRVVSVLTVLHQDWLNGKEYKCKVSNKALPAPIEKTISKAKGQPREPQVYTDPPSRDELTKNQVSLTCLVDGFYPSDIAVEWESNGQPENCYKTTPPVLDSDGSFFLYSKLTVDKSRWQQGNVFSCSVMHEALHNHYTQDSLSLSPGK
notes: also called anti-CD3 variant TY24742
On to B1, for which, in experiment [1], the EC50 is > 1000 nM and 480 nM.

B2: TY25525 (bispecific antibody, human IgG1, kappa, N297A)
light: not shown
heavy: not shown
chain: QAVVTQEPSLTVSPGGTVTLTCGSSTGAVTTSNYPNWVQQKPGQAPRGLIGGTNKRAPGVPARFSGSLLGGKAALTLSGAQPEDEAEYYCALWYSNLWVFGGGTKLTVLGGGGSGGGGSGGGGSGGGGSEVQLVESGGGLVKPGGSLRLSCAASGFTFSSYAINWVRQAPGKGLEWVGRIRSKYNNYATYYAESVKGRFTISRDDSKNTLYLQINSLRAEDTAVYYCVRHGNFGNSYVSYWAYWGQGTLVTVSSEPKSSDKTHTCPPCPAPELLGGPSVFLFPPKPKDTLMISRTPEVTCVVVDVSHEDPEVKFNWYVDGVEVHNAKTKPREEQYASTYRVVSVLTVLHQDWLNGKEYKCKVSNKALPAPIEKTISKAKGQPREPQVYTDPPSRDELTKNQVSLTCLVDGFYPSDIAVEWESNGQPENCYKTTPPVLDSDGSFFLYSKLTVDKSRWQQGNVFSCSVMHEALHNHYTQDSLSLSPGK
Regarding B2, it took 6.88 nM to reach a half-maximal effect in experiment [2] (EC50). This counts as single-digit nanomolar.

B3: TY25524 (bispecific antibody, human IgG1, kappa, N297A)
light: not shown
heavy: not shown
chain: EAVVTQEPSLTVSPGGTVTLTCGSSTGAVTTSNYANWVQQKPGQAPRGLIGGTKFRAPGIPARFSGSLLGGKAALTLSGAQPEDEAEYYCALWYSDHWVFGGGTKLTVLGGGGSGGGGSGGGGSGGGGSEVQLVESGGGLVQPGGSLRLSCAASGFTFSTYAINWVRQAPGKGLEWVGRIRSKYNNYATYYAESVKGRFTISRDDSKNTLYLQINSLRAEDTAVYYCARHGNFGTSYVSWFAYWGQGTLVTVSSEPKSSDKTHTCPPCPAPELLGGPSVFLFPPKPKDTLMISRTPEVTCVVVDVSHEDPEVKFNWYVDGVEVHNAKTKPREEQYASTYRVVSVLTVLHQDWLNGKEYKCKVSNKALPAPIEKTISKAKGQPREPQVYTDPPSRDELTKNQVSLTCLVDGFYPSDIAVEWESNGQPENCYKTTPPVLDSDGSFFLYSKLTVDKSRWQQGNVFSCSVMHEALHNHYTQDSLSLSPGK
In the case of B3, the EC50 in experiment [2] amounted to 260 nM.

B4: TY24051 (bispecific antibody)
light: not shown
heavy: not shown
chain: QAVVTQEPSLTVSPGGTVTLTCGSSTGAVTTSNYANWVQQKPGQAPRGLIGGTNKRAPGVPARFSGSLLGGKAALTLSGAQPEDEAEYYCALWYSNLWVFGGGTKLTVLRGGGGSGGGGSGGGGSGGGGSEVQLVESGGGLVQPGGSLRLSCAASGFTFNTYAMNWVRQAPGKGLEWVGRIRSKYNNYATYYADSVKGRFTISRDDSKNTLYLQMNSLRAEDTAVYYCVRHGNFGNSYVSWFAYWGQGTLVTVSSEPKSSDKTHTCPPCPAPELLGGPSVFLFPPKPKDTLMISRTPEVTCVVVDVSHEDPEVKFNWYVDGVEVHNAKTKPREEQYASTYRVVSVLTVLHQDWLNGKEYKCKVSNKALPAPIEKTISKAKGQPREPQVYTDPPSRDELTKNQVSLTCLVDGFYPSDIAVEWESNGQPENCYKTTPPVLDSDGSFFLYSKLTVDKSRWQQGNVFSCSVMHEALHNHYTQDSLSLSPGK
notes: also called parental HER2xCD3 bispecific antibody; anti-CD3 variant TAC2225
As to B4, the EC50 in experiment [1] is 15.3 nM and 10.2 nM.
